Patent publication US20240287161A1 (NATIONAL UNIVERSITY CORPORATION TOTTORI UNIVERSITY, published 2024)

T1: HCoV-NL63 trimeric S protein (amino acids 22-1293) with T4 foldon, histidine tag and strep-tag (HCoV-NL63, UniProt Q6Q1S2 23-1293)
T1 sequence: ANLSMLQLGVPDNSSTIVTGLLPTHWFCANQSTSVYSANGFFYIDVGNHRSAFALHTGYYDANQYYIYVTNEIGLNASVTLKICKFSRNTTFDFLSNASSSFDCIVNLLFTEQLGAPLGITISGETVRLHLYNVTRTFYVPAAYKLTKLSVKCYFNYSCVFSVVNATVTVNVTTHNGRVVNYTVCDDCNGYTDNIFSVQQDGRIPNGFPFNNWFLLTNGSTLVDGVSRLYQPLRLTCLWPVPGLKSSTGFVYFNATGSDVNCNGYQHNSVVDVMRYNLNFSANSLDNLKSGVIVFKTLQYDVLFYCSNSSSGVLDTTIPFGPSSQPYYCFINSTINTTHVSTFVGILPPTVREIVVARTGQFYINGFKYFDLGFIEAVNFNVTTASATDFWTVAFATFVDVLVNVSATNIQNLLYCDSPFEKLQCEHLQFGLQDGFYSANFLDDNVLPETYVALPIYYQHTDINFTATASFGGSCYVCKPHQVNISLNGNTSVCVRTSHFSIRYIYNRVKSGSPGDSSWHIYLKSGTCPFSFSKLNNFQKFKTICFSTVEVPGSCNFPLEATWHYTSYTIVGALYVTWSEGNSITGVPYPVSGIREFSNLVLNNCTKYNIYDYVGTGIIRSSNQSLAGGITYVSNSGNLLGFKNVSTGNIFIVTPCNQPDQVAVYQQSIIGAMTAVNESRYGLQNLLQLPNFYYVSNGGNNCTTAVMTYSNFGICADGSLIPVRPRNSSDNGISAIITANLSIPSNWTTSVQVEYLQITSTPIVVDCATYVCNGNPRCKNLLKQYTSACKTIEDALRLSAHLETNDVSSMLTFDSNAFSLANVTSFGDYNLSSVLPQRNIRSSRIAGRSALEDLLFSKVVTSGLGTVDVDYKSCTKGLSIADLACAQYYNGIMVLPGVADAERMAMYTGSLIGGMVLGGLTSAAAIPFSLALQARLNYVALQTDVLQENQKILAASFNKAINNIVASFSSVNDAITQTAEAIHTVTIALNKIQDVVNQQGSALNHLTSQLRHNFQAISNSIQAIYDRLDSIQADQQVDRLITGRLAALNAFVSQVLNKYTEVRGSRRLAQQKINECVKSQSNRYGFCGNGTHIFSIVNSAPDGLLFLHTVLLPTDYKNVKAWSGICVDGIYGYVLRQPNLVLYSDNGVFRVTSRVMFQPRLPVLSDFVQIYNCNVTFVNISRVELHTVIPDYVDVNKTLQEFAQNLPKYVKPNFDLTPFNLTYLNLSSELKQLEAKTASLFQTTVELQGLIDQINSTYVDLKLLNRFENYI

T2: HCoV-OC43 trimeric S protein (amino acids 12-1299) with T4 foldon, histidine tag and strep-tag (HCoV-OC43, UniProt P36334 12-1291)
T2 chain: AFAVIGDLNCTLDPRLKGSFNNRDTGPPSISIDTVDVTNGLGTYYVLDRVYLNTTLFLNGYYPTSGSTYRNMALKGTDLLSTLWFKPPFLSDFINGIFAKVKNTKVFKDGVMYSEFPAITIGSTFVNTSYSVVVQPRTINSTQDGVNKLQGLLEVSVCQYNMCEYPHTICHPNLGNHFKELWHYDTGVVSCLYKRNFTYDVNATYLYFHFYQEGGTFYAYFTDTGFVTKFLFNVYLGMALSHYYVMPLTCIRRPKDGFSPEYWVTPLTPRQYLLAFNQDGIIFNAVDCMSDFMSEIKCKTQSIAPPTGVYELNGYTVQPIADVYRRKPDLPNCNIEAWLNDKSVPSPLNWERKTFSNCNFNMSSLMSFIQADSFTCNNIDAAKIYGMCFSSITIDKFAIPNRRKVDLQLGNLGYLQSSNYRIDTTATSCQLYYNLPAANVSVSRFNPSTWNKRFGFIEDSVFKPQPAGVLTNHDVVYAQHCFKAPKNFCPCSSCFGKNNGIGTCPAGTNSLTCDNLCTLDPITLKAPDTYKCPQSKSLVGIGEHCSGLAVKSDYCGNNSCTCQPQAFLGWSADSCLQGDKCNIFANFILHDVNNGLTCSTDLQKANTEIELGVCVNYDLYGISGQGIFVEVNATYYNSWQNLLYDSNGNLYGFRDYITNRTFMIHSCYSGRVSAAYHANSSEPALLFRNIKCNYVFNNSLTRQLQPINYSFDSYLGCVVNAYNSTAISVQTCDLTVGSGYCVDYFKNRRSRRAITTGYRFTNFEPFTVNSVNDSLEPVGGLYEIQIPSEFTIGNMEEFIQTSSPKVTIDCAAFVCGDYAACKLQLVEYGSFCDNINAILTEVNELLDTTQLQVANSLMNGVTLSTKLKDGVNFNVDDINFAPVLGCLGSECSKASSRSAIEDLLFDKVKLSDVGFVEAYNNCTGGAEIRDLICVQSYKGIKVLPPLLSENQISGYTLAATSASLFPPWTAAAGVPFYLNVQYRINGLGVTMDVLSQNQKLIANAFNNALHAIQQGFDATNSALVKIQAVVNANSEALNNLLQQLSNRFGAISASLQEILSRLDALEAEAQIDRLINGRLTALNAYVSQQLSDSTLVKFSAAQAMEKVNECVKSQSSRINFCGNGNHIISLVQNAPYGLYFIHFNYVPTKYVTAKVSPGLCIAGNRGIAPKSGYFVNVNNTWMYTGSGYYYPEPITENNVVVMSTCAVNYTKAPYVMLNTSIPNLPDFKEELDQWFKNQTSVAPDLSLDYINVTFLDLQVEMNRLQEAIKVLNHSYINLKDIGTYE


Assays:
[1] = target: T1, HCoV-NL63 trimeric S protein (amino …); assay: ELISA on coated S-trimeric antigen, anti-human IgG-HRP [Human IgG1, NT-193]
[2] = target: T2, HCoV-OC43 trimeric S protein (amino …); assay: as above
[3] = target: T1, HCoV-NL63 trimeric S protein (amino …); assay: ELISA on coated S-trimeric antigen, anti-human IgG-HRP [Human IgG3, NT-193]
[4] = target: T2, HCoV-OC43 trimeric S protein (amino …); assay: as above

| Binder | binding result [1] | binding result [2] | binding result [3] | binding result [4] |
| --- | --- | --- | --- | --- |
| NT-193 (recombinant human IgG1/kappa antibody) (antibody, V domains shown) VH: EVQLQQWGAGLLKPSETLSLTCAVYGGSFSGYYWSWIRQPPGKGLEWIGEINHSGSTNYNPSLKSRVTISVDTSKNQFSLKLSSVTAADTAVYYCARGWDLDYYYGMDVWGQGTTVTVSS VL: DIRMTQSPSAMSASVGDRVTVTCRASQGIGNYLAWFQLKPGKVPKRLIYAASSLQSGVPARFSGGGSGTEFTLTISSLQPEDFATYYCLQHGFLPWTFGQGTKLEIK | no binding (tested: 1000 ng/ml) | no binding (tested: 1000 ng/ml) |  |  |
| NT-193, human IgG3 subclass (antibody, V domains shown) VH: EVQLQQWGAGLLKPSETLSLTCAVYGGSFSGYYWSWIRQPPGKGLEWIGEINHSGSTNYNPSLKSRVTISVDTSKNQFSLKLSSVTAADTAVYYCARGWDLDYYYGMDVWGQGTTVTVSS VL: DIRMTQSPSAMSASVGDRVTVTCRASQGIGNYLAWFQLKPGKVPKRLIYAASSLQSGVPARFSGGGSGTEFTLTISSLQPEDFATYYCLQHGFLPWTFGQGTKLEIK |  |  | no binding (tested: 1000 ng/ml) | no binding (tested: 1000 ng/ml) |
